Measurements: US20200325187A1 (Genentech, published 2020)
Where two headings read alike, the source gives them in different places.

How the values were obtained:
[1] = biological target: T1, hVEGF-A (human, UniProt P15692-4 27-191, limits assumed)
[2] = biological target: T1, hVEGF-A; assay: cell-based or functional assay
[3] = biological target: T2, LRP6 (human, UniProt O75581 20-1613); assay: cell-based or functional assay
[4] = biological target: T2, LRP6; assay: cell-based or functional assay; remark: listed apart in the source
[5] = biological target: T3, LRP6 E1E2 protein (human, UniProt O75581 20-630, limits assumed); assay: spot phage ELISA
T3 construct: domain: E1E2
T3 sequence (looked up): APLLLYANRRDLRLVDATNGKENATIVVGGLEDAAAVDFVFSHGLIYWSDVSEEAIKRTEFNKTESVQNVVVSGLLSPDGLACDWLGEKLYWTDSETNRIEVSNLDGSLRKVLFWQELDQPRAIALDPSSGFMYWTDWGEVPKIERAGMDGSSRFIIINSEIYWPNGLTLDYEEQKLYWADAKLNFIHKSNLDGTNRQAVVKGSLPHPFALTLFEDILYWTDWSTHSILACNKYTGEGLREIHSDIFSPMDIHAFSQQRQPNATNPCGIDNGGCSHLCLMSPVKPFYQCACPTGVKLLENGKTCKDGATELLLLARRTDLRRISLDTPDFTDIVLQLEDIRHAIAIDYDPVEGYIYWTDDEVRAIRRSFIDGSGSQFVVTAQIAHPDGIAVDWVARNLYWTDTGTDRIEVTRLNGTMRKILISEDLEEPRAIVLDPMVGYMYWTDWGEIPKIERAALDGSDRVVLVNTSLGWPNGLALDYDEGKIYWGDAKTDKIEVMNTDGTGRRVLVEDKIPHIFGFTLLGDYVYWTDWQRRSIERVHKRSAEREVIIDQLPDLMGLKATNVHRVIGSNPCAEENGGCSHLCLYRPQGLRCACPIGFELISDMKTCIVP

[6] = biological target: T4, hVEGF-A (8-109) (human, UniProt P15692 214-315); assay: spot phage ELISA
T4 sequence (looked up): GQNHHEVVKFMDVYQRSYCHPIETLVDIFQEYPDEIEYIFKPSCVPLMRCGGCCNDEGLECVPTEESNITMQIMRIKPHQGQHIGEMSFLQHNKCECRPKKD
Procedure: (§1) After four rounds of binding selection, individual phage clones were picked and inoculated into 450 μl 2YT media containing 50 µg/ml Carbenecillin and M13-KO7 helper phage in 96-well blocks, which were grown at 37° C. overnight. […] The plates were washed and bound phage was detected with anti-M13-HRP followed by TMB substrate. In these assays, phage binding to BSA alone was tested in parallel to assess background binding. […] Positive clones were subjected to DNA sequence analysis.

[7] = biological target: T4, hVEGF-A (8-109); assay: spot phage ELISA; remark: listed apart in the source
How it was run: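 Phage clones from four selection rounds were grown overnight at 37 °C with M13-KO7 helper phage. Bound phage was detected with anti-M13-HRP and TMB, with binding to BSA alone run in parallel as background.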

[8] = biological target: T1, hVEGF-A; assay: phage competition ELISA, soluble CKP
[9] = biological target: T1, hVEGF-A; assay: cell-based or functional assay; remark: listed apart in the source
[10] = biological target: T4, hVEGF-A (8-109); assay: spot phage ELISA; remark: listed apart in the source
Procedure: as §1

[11] = biological target: T1, hVEGF-A; assay: KDR-VEGF competition ELISA
[12] = biological target: T1, hVEGF-A; assay: SPR
Procedure: Depending on the format of the assay either a streptavidin sensor (SA) or a dextran-coated (CM5) sensor was utilized as described below.
Reaction was then quenched by addition of 10 molar excess of Glycine pH 8.0 and the sample was buffer exchanged into PBS using an Amicon 0.5 mL 3000 MWCO ultra-centrifugal filters (EMD Millipore). The biotinylation state of the protein was verified by LC-MS analysis. Biotinylated VEGF-A was then captured on the surface until a resonance unit (RU) signal of about ˜400. For immobilization of VEGF-A on CM5 sensor, the surface was first activated with a mixture of N-ethyl-N′-(3-dimethylaminopropyl)carbodiimide hydrochloride and N-hydroxysuccinimide (EDC/NHS) according to the supplier instructions. VEGF-A was then diluted into coupling buffer (0.1 M Acetate Buffer, pH 5.0) and injected until the signal reached about ˜400 RU followed by a wash with 1 M ethanolamine pH 8.0 to quench remaining activated sites.

[13] = biological target: T1, hVEGF-A; assay: cell-based or functional assay; remark: listed apart in the source
[14] = biological target: T1, hVEGF-A; assay: phage competition ELISA, soluble CKP; remark: listed apart in the source
[15] = biological target: T4, hVEGF-A (8-109); assay: phage competition ELISA (clone on phage; the concentration varied on the axis is that of hVEGF (8-109))
[16] = biological target: T1, hVEGF-A; assay: cell-based or functional assay; remark: listed apart in the source
[17] = biological target: T4, hVEGF-A (8-109); assay: phage competition ELISA

## GCNIMLPFWGCGRDFECMSDCICQYYQSCG (designed binder) [VEGF_CKP9.54.90.12]
[1]
  IC50 (read off the curve): 30 nM
[2]
  Cellular IC50: 1.2 nM
  FOLD [..] [..] TO VARIANT 9.54.90: 1.12 fold

## GCNIMLPFWGCGRDFECMNQCICQYYQSCG (designed binder) [VEGF_CKP9.54.90.13]
[1]
  IC50 (read off the curve): 20 nM
[2]
  Cellular IC50: 0.96 nM
  FOLD [..] [..] TO VARIANT 9.54.90: 1.41 fold

## GCNIMLPFWGCGRDFECFYECICQYYQSCG (designed binder) [VEGF_CKP9.54.90.62]
[1]
  IC50 (read off the curve): 20 nM
[2]
  Cellular IC50: 0.92 nM
  FOLD [..] [..] TO VARIANT 9.54.90: 1.47 fold

## GCNIMLPFWGCGRDFECMEQCICQYYQSCG (designed binder) [VEGF_CKP9.54.90.67]
[1]
  IC50 (read off the curve): 12 to 20 nM
[2]
  Cellular IC50: 1.1 nM
  FOLD [..] [..] TO VARIANT 9.54.90: 1.23 fold

## GCRNSIKRCKQNSDCLAGCVCSVGHGCG (designed binder) [LRP6_CKP6]
[3]
  Best Fit IC50 (nM) for Wnt3a (25 ng/well), luciferase reporter, fraction F1: 350000 nM
  Best Fit IC50 (nM) for Wnt3a (25 ng/well), luciferase reporter, fraction F2: 276000 nM
[4]
  Best Fit IC50 (nM) for Wnt1 (5 ng/well), luciferase reporter, fraction F1: 22900 nM
  Best Fit IC50 (nM) for Wnt1 (5 ng/well), luciferase reporter, fraction F2: 23800 nM
  Best Fit IC50 (nM) for Wnt1 (5 ng/well), luciferase reporter, fraction F3: 4620 nM
[5]
  ELISA: 3.1
  S/N vs BSA: 37.4

## GCQLMQPFWGCKQDSDCLAGCVCHWYQSCG (designed binder, also called E9) [VEGF_CKP9]
[6]
  ELISA: 0.4
  S/N vs BSA: 7.4
[7]
  ELISA: 3.3
  S/N vs BSA: 36
[8]
  IC50: 1360 nM
[9]
  Cellular IC50: 11700 nM
[10]
  ELISA: 0.4
  S/N vs BSA: 7.4
[11]
  IC50: 569 nM
[12]
  Kd: 5000 nM
[13]
  Cellular IC50: 11700 nM
[14]
  IC50: 600 nM

## GCDVLQPFWGCKQDSDCLAGCVCHWYQSCG (designed binder) [VEGF_CKP9.2]
[8]
  IC50: 168 nM
[10]
  ELISA: 2.4
  S/N vs BSA: 31.1
[13]
  Cellular IC50: 270 nM

## GCNIMLPFWGCGQSFECLAGCVCQYYQSCG (designed binder) [VEGF_CKP9.54.1]
[15]
  IC50 (read off the curve): ~0.3 nM
[7]
  ELISA: 2.4
  S/N vs BSA: 29.9
[9]
  Cellular IC50: 1.47 nM
[11]
  IC50: 0.2 nM
[12]
  Kd: 2.2 nM

## GCNIMLPYWGCGRDFECLAGCVCQYYQSCG (designed binder) [VEGF_CKP9.54.90.F8Y]
[12]
  Kd: 0.4 nM
[16]
  Cellular IC50: 1.58 nM
  FOLD [..] [..] TO VARIANT 9.54.90: 0.85 fold

## GCSNRVKVRACKQDSDCLAGCVCGPNGFCG (designed binder) [LRP6_CKP19]
[3]
  Best Fit IC50 (nM) for Wnt3a (25 ng/well), luciferase reporter, fraction F1: 59300 nM
  Best Fit IC50 (nM) for Wnt3a (25 ng/well), luciferase reporter, fraction F2: 69800 nM
[4]
  Best Fit IC50 (nM) for Wnt1 (5 ng/well), luciferase reporter, fraction F1: 23100 nM
  Best Fit IC50 (nM) for Wnt1 (5 ng/well), luciferase reporter, fraction F2: 49300 nM
[5]
  ELISA: 3.27
  S/N vs BSA: 42

## GCNIMLPFWGCKQDFDCLAGCICQYYQSCGFH (designed binder) [9.54-28]
[15]
  IC50 (read off the curve): ~0.1 nM
[17]
  fold improvement in binding affinity compared to 9.54: ~10 fold

## GCNIMLPFWGCGQSFECLAGCICQYYQSCGIA (designed binder) [9.54.1-2]
[17]
  fold improvement in binding affinity compared to 9.54.1: ~10 fold

## GCNIMLPFWGCGQSFECLAGCICQYYQSCGTR (designed binder) [9.54.1-36]
[15]
  IC50 (read off the curve): ~0.06 nM
[17]
  fold improvement in binding affinity compared to 9.54.1: ~10 fold

## GCNIMLPFWGCGQSFECLAGCICQYYQSCGLS (designed binder) [9.54.1-42]
[15]
  IC50 (read off the curve): ~0.08 nM
[17]
  fold improvement in binding affinity compared to 9.54.1: ~10 fold

## GCNIMLPFWGCGQSFECLAGCICQYYQSCGGS (designed binder) [9.54.1-63]
[17]
  fold improvement in binding affinity compared to 9.54.1: ~10 fold

## GCNIMLPFWGCGQSFECLAGCICQYYQSCGVH (designed binder) [9.54.1-90]
[15]
  IC50 (read off the curve): ~0.08 nM
[17]
  fold improvement in binding affinity compared to 9.54.1: ~10 fold
